Results as given in PMC7820495 (2021).

Target: T1, GST-SVIP (Drosophila SVIP, CG32039) (Drosophila, UniProt Q8IQC6 1-82)
T1 chain: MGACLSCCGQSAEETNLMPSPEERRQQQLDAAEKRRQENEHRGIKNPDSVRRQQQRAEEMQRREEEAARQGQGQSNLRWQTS

Kd: 700 nM
B1: MBP-VCP^N-D1 (Drosophila VCP, N-terminal and first D1 ATPase domain) (domain or fragment)
chain: MADSKGEDLATAILKRKDRPNRLIVEEAQNDDNSVVSLSQAKMDELQLFRGDTVILKGKRRKETVCIVLSDDTCPDEKIRMNRVVRNNLCVHLSDVVSVQSCPDVKYGKRVRILPIDESTEGVTGNLFEIYLKPYFLEAYRPIHMGDNFIVRAAMRPIEFKVVLTDPEPYCIVAPETVIFCDGDPIKREEEEESLNAVGYDDIGGCRKQLAQIKEMVELPLRHPSLFKAIGVKPPRGILMYGPPGTGKTLIARAVANETGAFFFLINGPEIMSKLAGESESNLRKAFEEAEKNSPAIIFIDEIDAIAPKRDKTHGEVERRIVSQLLTLMDGMKKSSHLIVMAATNRPNSIDPALRRFGRFDREIDIGIPDATGRLEVLRIHTKNMKLHDDVDLEQIAAESHGHVGADLASLCSEAALQQIREKMDLIDLEDDKIDAEVLASLAVTMENFRYAMTKSSPSALRETVVEVPNTTWTDIGGLESVKKELQELVQYPVEHPDKFLKFGMQPSRGVLFYGPPGCGKTLLAKAIANECQANFISVKGPELLTMWFGESEANVRDIFDKARSAAPCVLFFDELDSIAKARGGNVGDAGGAADRVINQILTEMDGMGAKKNVFIIGATNRPDIIDPAILRPGRLDQLIYIPLPDDKSREAILKANLRKSPLAKEVDLTYIAKVTQGFSGADLTEICQRACKLAIRQAIEAEIRREKERAENQNSAMDMDEDDPVPEITSAHFEEAMKFARRSVSDNDIRKYEMFAQTLQQSRGFGQNFRFPGQTGNTSGSGNNLPVNSPGDNGDDDLYS
